Source: the Human Domainome abundance scans (Beltran et al. 2025)

B1: REST corepressor 3, residues 87 to 134; numbered along this chain, Q9P2K3 (parent)
chain: DEWTVEDKVLFEQAFSFHGKSFHRIQQMLPDKTIASLVKYYYSWKKTR

Variants of: B1
Assay: abundance fitness (aPCA) (normalised: wild type 0, dead -1); higher = more abundant; growth selection in yeast, the domain comes from the species named
Conditions: Homo sapiens

Abundance fitness: each site, then its substitutions
K39: R -0.221; H 0.075; T -0.422; M -0.748; P -0.86; L -0.732; Y -0.193; W -0.67; C -0.546; N -0.276; A -0.481; E -0.574; V -0.741; D -0.575; S -0.168; G -0.11
K45: I -0.424; F -0.493; G -0.69; Y 0.357; V -0.454; S -0.143; R -0.087; L -0.597; N 0.014; W -0.61; C -0.616; Q -0.102; M 0.081; E -0.546; A -0.336
S36: D -0.219; C -0.008; H -0.241; W -0.825; G -0.167; A -0.504; R -0.478; K -0.627; V -0.761; T -0.347; P -0.852; L -1.04; Q 0.116; M -0.288
P30: G -0.957; V -0.726; Q -0.716; E -0.563; M -0.891; H -0.498; F -0.182; S -0.851; A -0.811; W 0.322; K -0.177; L -0.928
Y41: H -0.52; V -0.657; W -0.574; F -0.644; K -0.398; A -0.817; R -0.654; I -0.599; G -0.836; E -0.491
S43: V -0.076; T -0.312; M -0.547; C -0.027; E -0.084; L -0.49; W -0.327; G -0.154; A -0.128; R 0.021; D 0.162; K 0.134; N -0.172; F -0.577
Y40: G -1.09; P -0.324; R -0.964; K -0.346; V -0.824; E -0.318; C -0.674
Q27: R -0.244; S -0.482; L -0.326; V 0.395; T -0.406; M 0.449
V38: T -0.266; Q -0.499; E -0.12; C -0.647; R -0.116; I 0.279; L -0.123; A -0.182; D -0.612; Y -0.036; M -0.115; H -0.723; F -0.663; K 0.393; N -0.169; S -0.215; W -0.575
T33: C -0.805; D -0.354; L -0.686; Y -0.708; A -0.55; H -0.781; P 0.275; W -0.693; V -0.776; Q -0.658; S -0.385; G -0.265; E -0.647; R -0.688; N -0.508; K -0.109
T47: W -0.542; Q -0.979; L -0.408; P -0.075; S -0.463; E -0.493; A -0.672; I -0.623; R -0.071; V -0.752
K32: G -0.89; L -0.673; S -0.972; C -0.816; V -0.93; T -0.819; A -0.854; E -0.836; Q -0.888; W -0.945; H -0.45; I -0.978; N -0.776; D -0.903; M -0.799; P -0.742; R -0.473; Y -0.885; F -0.814
I34: E -0.455; K -0.67; F -0.036; V -0.747; S -0.677; L -0.419; Y -0.508; H -0.73; N -0.267; R -0.374; D -0.437
